Measured values as given in publication PMC4652220, “Imaging and energetics of single SSB-ssDNA molecules reveal intramolecular condensation and insight into RecOR function” (eLife, 2015).

Biological target: T1, RecO (UniProt P0A7H3 1-242)
T1 construct: RecO recombination mediator protein; source: purified as previously described (Kantake et al., 2002)
T1 sequence (looked up): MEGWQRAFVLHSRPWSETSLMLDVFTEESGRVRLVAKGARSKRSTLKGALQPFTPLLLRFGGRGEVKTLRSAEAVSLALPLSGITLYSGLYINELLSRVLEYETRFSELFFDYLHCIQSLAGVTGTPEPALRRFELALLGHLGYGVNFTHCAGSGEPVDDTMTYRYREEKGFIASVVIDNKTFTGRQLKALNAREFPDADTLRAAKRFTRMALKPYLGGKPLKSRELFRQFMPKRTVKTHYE
Experiment: magnetic tweezers force spectroscopy; single tethered ssDNA; added in turn: 100 mM NaOAc and 1 mM Mg(OAc)2, 200 nM SSB, 100 nM RecO, 1 μM RecR; 20 mM TrisOAc pH 8.0, 50 mM DTT; 25°C
Conditions: both partners purified

B1: RecR (natural protein, UniProt P0A7H6 1-201, looked up)
chain: MQTSPLLTQLMEALRCLPGVGPKSAQRMAFTLLQRDRSGGMRLAQALTRAMSEIGHCADCRTFTEQEVCNICSNPRRQENGQICVVESPADIYAIEQTGQFSGRYFVLMGHLSPLDGIGPDDIGLDRLEQRLAEEKITEVILATNPTVEGEATANYIAELCAQYDVEASRIAHGVPVGGELEMVDGTTLSHSLAGRHKIRF
notes: RecR recombination protein; It cites other work for RecR dimers/tetramers; source: purified as previously described (Kantake et al., 2002)
Q: Does B1 bind?
A: Result: binds
